Measured values: patent US20200353078A1 (AstraZeneca / MedImmune, published 2020)

Assays:
[1] = molecular target: T1, Human IL-33 (Axxora/Adipogen AG-40B-0038) (human, UniProt O95760 112-270, limits assumed); experiment: cell-based or functional assay
T1 sequence (looked up): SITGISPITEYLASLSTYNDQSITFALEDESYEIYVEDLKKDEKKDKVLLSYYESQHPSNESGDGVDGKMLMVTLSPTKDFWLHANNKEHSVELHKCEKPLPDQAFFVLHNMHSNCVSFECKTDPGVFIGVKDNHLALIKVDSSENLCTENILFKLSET

[2] = molecular target: T2, Human IL-33 (Axxora/Alexis ALX-522-098) (human, UniProt O95760 112-270); experiment: cell-based or functional assay
T2 sequence (looked up): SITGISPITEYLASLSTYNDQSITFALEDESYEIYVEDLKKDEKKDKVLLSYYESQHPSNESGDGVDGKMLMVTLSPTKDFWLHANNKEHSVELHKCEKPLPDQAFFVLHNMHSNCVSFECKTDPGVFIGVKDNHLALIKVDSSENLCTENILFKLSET

Human IL-33 Flag®His = molecular target: T3, Human IL-33 Flag®His (human); experiment: ELISA, biotinylated antigen on streptavidin plate, anti-human IgG HRP
T3 construct: Mature IL-33 with C-terminal FLAG 10xHis tag, from E. coli; biotinylated via free cysteines where used biotinylated; also called Mature Human IL-33_FH; human IL-33 FH
T3 chain: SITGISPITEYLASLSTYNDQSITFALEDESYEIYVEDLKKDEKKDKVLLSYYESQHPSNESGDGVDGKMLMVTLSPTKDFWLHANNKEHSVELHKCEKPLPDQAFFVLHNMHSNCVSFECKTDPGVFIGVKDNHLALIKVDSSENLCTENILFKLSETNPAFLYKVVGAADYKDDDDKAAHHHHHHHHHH
Experimental: (§1) 96-well Greiner polypropylene plates (Greiner, 650201) were used for dilution preparation. Generally, each dilution was prepared in duplicate. IgG dilutions were allowed to block in PBS-M for 1 hour at room temperature before being used directly in ELISA experiments.
(§2) Streptavidin plates (Thermo Scientific, AB-1226) were coated with biotinylated antigen at 0.5 μg/ml in PBS and incubated overnight at 4° C. Plates were washed 3× with PBS and blocked with 300 μl/well blocking buffer (PBS-M) for 1 hour. Plates were washed 1× with PBS and blocked samples added, 50 μl/well for 1 hour at room temperature. […] Plates were washed 3× with PBS-T and developed with TMB, 50 μl/well (Sigma, T0440). The reaction was quenched with 50 μl/well 0.1M H2504 before reading on an EnVision™ plate reader, or similar equipment, at 450 nm.
(§3) Species cross-reactivity of anti-IL-33 antibodies was determined using a plate-based ELISA. Streptavidin plates (Thermo Scientific, AB-1226) were coated with biotinylated antigen at 0.5 μg/ml in PBS. Binding of purified IgG preparations was detected with anti-human IgG HRP (Sigma, A0170).

[3] = molecular target: T4, Cynomolgus IL-33 Flag®His (cynomolgus monkey); experiment: as above
T4 construct: C-terminal FLAG 10xHis tag, E. coli; also called Mature Cynomolugus IL-33; cyno IL-33 FH
T4 chain: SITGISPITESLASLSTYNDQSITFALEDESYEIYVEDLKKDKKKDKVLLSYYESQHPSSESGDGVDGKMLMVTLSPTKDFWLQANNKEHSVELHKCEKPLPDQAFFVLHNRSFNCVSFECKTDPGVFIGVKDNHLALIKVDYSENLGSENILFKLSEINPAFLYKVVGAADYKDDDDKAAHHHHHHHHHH
Experimental: as §1, §2, §3

Mouse IL-33 Flag®His = molecular target: T5, Mouse IL-33 Flag®His (mouse); experiment: as above
T5 construct: C-terminal FLAG 10xHis tag, E. coli; also called Mature Mouse IL-33_FH; mouse IL-33 FH
T5 chain: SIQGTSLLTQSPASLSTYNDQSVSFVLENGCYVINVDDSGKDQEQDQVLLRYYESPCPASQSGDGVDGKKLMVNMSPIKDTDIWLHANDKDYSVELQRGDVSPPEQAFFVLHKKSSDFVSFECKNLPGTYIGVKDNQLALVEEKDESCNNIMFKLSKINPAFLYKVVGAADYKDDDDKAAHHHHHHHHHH
Experimental: as §1, §2, §3

Endogenous human IL-33 = molecular target: T6, Endogenous human IL-33 (human, UniProt O95760 1-270, limits assumed); experiment: cell-based or functional assay
T6 sequence (looked up): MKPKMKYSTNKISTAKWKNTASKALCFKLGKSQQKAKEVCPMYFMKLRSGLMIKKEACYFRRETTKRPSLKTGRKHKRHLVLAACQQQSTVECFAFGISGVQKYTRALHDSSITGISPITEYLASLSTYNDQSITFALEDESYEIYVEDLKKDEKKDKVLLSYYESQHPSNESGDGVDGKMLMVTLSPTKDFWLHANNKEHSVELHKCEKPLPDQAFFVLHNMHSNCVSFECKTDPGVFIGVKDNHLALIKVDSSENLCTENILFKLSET

[4] = molecular target: T7, Full-length human IL-33 (amino acids 1-270), HEK293-EBNA cell lysate (human, UniProt O95760 1-270); experiment: cell-based or functional assay
T7 sequence (looked up): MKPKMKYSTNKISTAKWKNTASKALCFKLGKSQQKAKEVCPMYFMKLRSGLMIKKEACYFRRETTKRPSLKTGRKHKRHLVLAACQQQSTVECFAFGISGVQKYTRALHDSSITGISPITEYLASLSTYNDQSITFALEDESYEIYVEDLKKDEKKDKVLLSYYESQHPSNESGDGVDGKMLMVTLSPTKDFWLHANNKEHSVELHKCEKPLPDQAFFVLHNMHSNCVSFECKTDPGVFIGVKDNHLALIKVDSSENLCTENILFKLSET

His10/Avi Human IL33-01 [5] = molecular target: T8, His10/Avi Human IL33-01 (human); experiment: HTRF epitope competition, scFv titrated; competitor DyLight labelled 33v20064 IgG
T8 construct: Wild type mature IL-33 with N-terminal 10xHis, Avitag and Factor Xa site; biotinylated by BirA on the Avitag where used biotinylated; reduced form unless treated; also called N-terminal His Avi IL-33; His-Avi human IL-33 wild type
T8 chain: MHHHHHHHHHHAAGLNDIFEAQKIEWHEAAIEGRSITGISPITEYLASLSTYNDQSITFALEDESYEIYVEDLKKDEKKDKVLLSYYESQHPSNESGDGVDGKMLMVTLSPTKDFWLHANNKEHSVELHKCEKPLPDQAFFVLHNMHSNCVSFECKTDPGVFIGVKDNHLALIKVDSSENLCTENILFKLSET
Experimental: (§4) This was followed by the addition of 2.5 microlitres of a solution containing 0.8 nM biotinylated human IL-33-01 combined with 0.75 nM streptavidin cryptate detection (Cisbio International, 610SAKLB) for the human assay or a solution containing 4 nM biotinylated cynomolgus IL-33 combined with 1.5 nM streptavidin cryptate detection (Cisbio International, 610SAKLB) for the cynomolgus assay. All dilutions were performed in assay buffer containing 0.8 M potassium fluoride (VWR, 26820.236) and 0.1% bovine serum albumin (BSA, PAA, K05-013) in Dulbeccos PBS (Invitrogen, 14190185). Assay plates were incubated for 1 hour at room temperature and time resolved fluorescence was read at 620 nm and 665 nm emission wavelengths using an EnVision plate reader (Perkin Elmer). Data were analysed by calculating the 665/620 nm ratio followed by the % Delta F values for each sample. The 665/620 nm ratio was used to correct for sample interference using Equation 1. The % Delta F for each sample was then calculated using Equation 2. The negative control (non-specific binding) was defined by replacing biotinylated IL-33 combined with streptavidin cryptate detection with streptavidin cryptate detection only. The % Delta F values were subsequently used to calculate % specific binding as described in Equation 3.
(§5) Unique scFv were expressed again in bacteria and purified by affinity chromatography (as described in WO01/66754). Purified anti-IL-33 antibody samples were tested for potency of inhibition by competing a dilution series of the purified preparation against DyLight labelled 33v20064 IgG or DyLight labelled 33_640027 IgG for binding to biotinylated His Avi IL33-01, biotinylated His Avi IL33-11 or biotinylated His Avi cynomolgus IL-33. Methods are as described in the previous section.

His10/Avi Human IL33-11 = molecular target: T9, His10/Avi Human IL33-11 (human); experiment: as above
T9 construct: C208S, C259S mutant (already in the entry), N-terminal His10/Avitag; also called His-Avi mutant IL-33; SCCS
T9 chain: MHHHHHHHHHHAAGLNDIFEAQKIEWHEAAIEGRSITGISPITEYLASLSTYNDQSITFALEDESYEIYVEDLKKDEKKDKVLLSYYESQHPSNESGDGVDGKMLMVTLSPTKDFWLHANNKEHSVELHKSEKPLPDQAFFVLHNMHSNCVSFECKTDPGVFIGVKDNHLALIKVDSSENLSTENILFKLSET
Experimental: as §4, §5

His10/Avi Cyno IL-33 [6] = molecular target: T10, His10/Avi Cyno IL-33 (cynomolgus monkey); experiment: as above
T10 construct: also called Cynomolgus 10His Avitag IL-33; biotinylated His Avi cynomolgus IL-33
T10 chain: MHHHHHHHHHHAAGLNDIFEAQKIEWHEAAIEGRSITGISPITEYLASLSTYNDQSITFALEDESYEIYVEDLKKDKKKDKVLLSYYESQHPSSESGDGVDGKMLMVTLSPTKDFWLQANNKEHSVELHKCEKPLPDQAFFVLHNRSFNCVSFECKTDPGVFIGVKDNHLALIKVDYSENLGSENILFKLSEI
Experimental: as §4, §5

His10/Avi Human IL33-01 [7] = molecular target: T8, His10/Avi Human IL33-01; experiment: HTRF epitope competition, scFv titrated; competitor DyLight labelled 33_640027 IgG
His10/Avi Cyno IL-33 [8] = molecular target: T10, His10/Avi Cyno IL-33; experiment: as above
His10/Avi Human IL33-01 [9] = molecular target: T8, His10/Avi Human IL33-01; experiment: HTRF epitope competition, IgG titrated; competitor DyLight labelled 33_640117 IgG; 1 hour
Experimental: (§6) As the epitope competition assay utilising 33_640027 reached its limit of sensitivity, an assay using 33_640117 was used for testing purified scFv samples. The assay was essentially as described for the 33v20064 competition assay with the following modifications: 2.5 nM DyLight labelled 33_640117 was prepared and 2.5 microlitres added to the assay plates. This was followed by the addition of 2.5 microlitres of a solution containing 0.12 nM biotinylated human IL-33-01 combined with 0.75 nM streptavidin cryptate detection (Cisbio International, 610SAKLB) for the human assay or a solution containing 0.24 nM biotinylated cynomolgus IL-33 combined with 1.5 nM streptavidin cryptate detection (Cisbio International, 610SAKLB) for the cynomolgus assay. Fluorescence was read after one hour and overnight incubation.
(§7) The ability of anti-IL-33 antibodies to inhibit the binding of biotinylated His Avi human IL-33 or cynomolgus His Avi IL-33 to the DyLight labelled 33_640117 IgG was assessed in a biochemical HTRF® (Homogeneous Time-Resolved Fluorescence, Cisbio International) competition assays as described above.

His10/Avi Cyno IL-33 [10] = molecular target: T10, His10/Avi Cyno IL-33; experiment: as above
Experimental: as §6, §7

His10/Avi Human IL33-01 [11] = molecular target: T8, His10/Avi Human IL33-01; experiment: HTRF epitope competition, IgG titrated; competitor DyLight labelled 33_640117 IgG; overnight
Experimental: as §6, §7

B1: IL330107 IgG (antibody, V domains shown)
VH: QMQLVQSGGGVVQPGGSLRLSCAASGFTFSSYAMSWVRQAPGKGLEWVSAISGSGGSTYYADSVKGRFTISRDNSKNTLYLQMNSLRAEDTAVYYCAKPFPSYWYFDLWGKGTLVTVSS
VL: SYVLTQPPSVSVSPGQTARITCSGDALPKQYAYWYQQKPGQAPVLVIYKDSERPSGIPERFSGSSSGTTVTLTISGVQAEDEADYYCQSADSSGTYRVFGGGTQLTVL
notes: IgG1 or IgG1-TM
- IC50 (geomean), Mast cell IL-6 production [1]: 283 nM
- IC50, TF-1 proliferation [2]: 94 nM
- EC50 (Human IL-33 Flag®His): 0.86 nM
- EC50 [3]: 1.09 nM
- EC50 (Mouse IL-33 Flag®His): 0.83 nM

B2: Human ST2-Fc (R&D Systems, or source not stated in the example) (Fc fusion, UniProt Q01638 19-328, looked up, not shown: a dimerising Fc or GST)
chain: KFSKQSWGLENEALIVRCPRQGKPSYTVDWYYSQTNKSIPTQERNRVFASGQLLKFLPAAVADSGIYTCIVRSPTFNRTGYANVTIYKKQSDCNVPDYLMYSTVSGSEKNSKIYCPTIDLYNWTAPLEWFKNCQALQGSRYRAHKSFLVIDNVMTEDAGDYTCKFIHNENGANYSVTATRSFTVKDEQGFSLFPVIGAPAQNEIKEVEIGKNANLTCSACFGKGTQFLAAVLWQLNGTKITDFGEPRIQQEEGQNQSFSNGLACLDMVLRIADVKEEDLLLQYDCLALNLHGLRRHTVRLSRKNPIDHHS
- IC50, Huvec IL-8 release stimulated by human lung lysate (Endogenous human IL-33): 0.019 nM
- IC50, Huvec IL-8 assay vs. full length IL-33 cell lysate [4]: 0.67 nM

B3: 33_640047 scFv (scFv, V domains shown)
VH: EVQLLESGGGLVQPGGSLRLSCAASGFTFSSYAMSWVRQAPGKGLEWVSAISGSGGSTYYADSVKGRFTISRDNSKNTLYLQMNSLRAEDTAVYYCTRLKFMQLWGGGLRYPFGYWGQGTMVTVSS
VL: SYVLTQPPSVSVSPGQTASITCSGERMGDKYAAWYQQKPGQSPVLVIYQDTKRPSGIPERFSGSNSGNTATLTISGTQAMDEADYYCQVWDSSTGVFGGGTKVTVL
notes: Single chain Fv; also called ZZ1F7P-E01
- IC50 (His10/Avi Human IL33-01 [5]): 0.4 nM
- IC50 (His10/Avi Human IL33-11): 0.5 nM
- IC50 (His10/Avi Cyno IL-33 [6]): 2.7 nM
- IC50 (His10/Avi Human IL33-01 [7]): 2.3 nM
- IC50 (His10/Avi Cyno IL-33 [8]): 8.8 nM

B4: 33v20064 IgG1 (antibody, V domains shown)
VH: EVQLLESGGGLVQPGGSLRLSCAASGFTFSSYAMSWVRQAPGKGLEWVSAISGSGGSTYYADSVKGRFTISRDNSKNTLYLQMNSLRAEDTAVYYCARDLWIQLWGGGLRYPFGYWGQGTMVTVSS
VL: LPVLTQPPSVSVSPGQKASITCSGERMGDKYAAWYQQKPGQSPILVIYQDTKRPSGIPERFSGSNSGNTATLTISGTQDMDEADYYCQVWDSSTGVFGGGTKVTVL
notes: IgG1; also called ZZ1EBX-E05
- IC50, Huvec IL-8 assay vs. full length IL-33 cell lysate [4]: 185 nM
- IC50 (His10/Avi Human IL33-01 [9]): 150 nM
- IC50 (His10/Avi Cyno IL-33 [10]): 788 nM
- IC50 (His10/Avi Human IL33-01 [11]): 689 nM
